These results are taken from patent US20050148511A1.

In assay [1] the target is FGFR1 expressed on FDCP cells. The experiment in a line: cell-based or functional assay.
The target in assay [2] is FGFR3IIIc expressed on FDCP cells. The experiment in a line: cell-based or functional assay.

Turning to “wild type FGF-2 (from UniProt P09038 1-155) (ligand)”, the EC50 (effective concentration), mitogenicity on FGFR-transfected FDCP cells in assay [1] was found to be 2.65 ng/mL; in assay [2], 4.2 ng/mL.

FGF2(3,5Q)-N111G (ligand): the EC50 (effective concentration), mitogenicity on FGFR-transfected FDCP cells was in the range of 0.35 to 1 ng/mL in assay [1] and 0.3 to 0.65 ng/mL in assay [2].
